Measurements published in the supplement of paper PMC6379048.

Assays:
Assay in all cases: EC50 of free RNA motif oligo competing protein binding to immobilised probe
CSTF1 = biological target: T1, CSTF1 (UniProt Q05048)
T1 sequence: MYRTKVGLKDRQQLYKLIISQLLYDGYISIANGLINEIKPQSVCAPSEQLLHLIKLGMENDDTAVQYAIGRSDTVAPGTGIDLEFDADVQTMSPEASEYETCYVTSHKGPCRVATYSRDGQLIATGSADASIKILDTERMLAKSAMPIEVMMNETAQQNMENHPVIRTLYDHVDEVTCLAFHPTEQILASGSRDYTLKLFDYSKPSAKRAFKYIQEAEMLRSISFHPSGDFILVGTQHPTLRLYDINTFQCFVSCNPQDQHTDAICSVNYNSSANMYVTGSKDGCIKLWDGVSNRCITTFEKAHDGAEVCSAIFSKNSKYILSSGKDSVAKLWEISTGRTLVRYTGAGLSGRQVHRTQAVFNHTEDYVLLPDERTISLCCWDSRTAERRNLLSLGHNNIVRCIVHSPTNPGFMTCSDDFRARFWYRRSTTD
In short: (§1)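 Kd was calculated as EC50, taken from a four-parameter log-logistic fit, multiplied by a protein-dependent depletion factor. The assay used HEK293-FT lysate (2.5 mg protein/well) pre-incubated for 1 h at 4°C with free RNA oligos (0 nM to 30 μM), then incubated for 30 min at 4°C with the matching oligos bound through a 5′-amino-C6 linker to NHS-Sepharose beads. Bound proteins were measured by label-free LC-MS/MS and normalised to the control.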

RBM17 = biological target: T2, RBM17 (UniProt Q96I25)
T2 sequence: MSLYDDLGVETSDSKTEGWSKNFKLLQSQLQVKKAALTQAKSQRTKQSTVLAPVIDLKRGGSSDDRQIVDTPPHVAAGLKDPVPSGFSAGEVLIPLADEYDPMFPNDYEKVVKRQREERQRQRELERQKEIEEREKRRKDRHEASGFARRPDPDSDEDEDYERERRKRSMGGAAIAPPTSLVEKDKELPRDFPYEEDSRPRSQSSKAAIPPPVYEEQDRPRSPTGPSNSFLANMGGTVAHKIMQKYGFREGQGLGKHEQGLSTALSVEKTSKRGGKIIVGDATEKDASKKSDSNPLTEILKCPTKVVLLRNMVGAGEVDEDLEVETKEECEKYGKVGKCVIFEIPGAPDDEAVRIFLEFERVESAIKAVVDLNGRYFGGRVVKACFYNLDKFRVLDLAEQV
In short: as §1

CSTF3 = biological target: T3, CSTF3 (UniProt Q12996)
T3 sequence: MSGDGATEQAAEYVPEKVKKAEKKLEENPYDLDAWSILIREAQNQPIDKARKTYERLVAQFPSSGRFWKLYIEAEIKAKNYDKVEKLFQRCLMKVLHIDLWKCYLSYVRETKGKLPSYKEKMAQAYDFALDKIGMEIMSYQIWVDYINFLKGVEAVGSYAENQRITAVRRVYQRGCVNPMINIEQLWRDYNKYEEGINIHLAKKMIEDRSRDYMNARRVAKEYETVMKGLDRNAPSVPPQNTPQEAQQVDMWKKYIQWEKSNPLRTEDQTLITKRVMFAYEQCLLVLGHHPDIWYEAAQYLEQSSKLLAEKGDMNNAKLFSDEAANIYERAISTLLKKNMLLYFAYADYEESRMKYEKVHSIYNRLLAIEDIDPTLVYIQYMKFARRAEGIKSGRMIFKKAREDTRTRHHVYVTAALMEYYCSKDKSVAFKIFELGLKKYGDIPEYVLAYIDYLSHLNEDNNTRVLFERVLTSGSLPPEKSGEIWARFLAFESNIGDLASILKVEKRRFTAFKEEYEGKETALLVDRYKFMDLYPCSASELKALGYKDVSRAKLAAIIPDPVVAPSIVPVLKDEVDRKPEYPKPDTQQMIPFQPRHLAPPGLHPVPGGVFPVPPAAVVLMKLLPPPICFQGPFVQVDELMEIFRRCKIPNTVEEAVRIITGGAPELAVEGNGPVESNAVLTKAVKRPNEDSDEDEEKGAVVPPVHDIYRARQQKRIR
In short: as §1

Sequence | EC50 (CSTF1) | EC50 (RBM17) | EC50 (CSTF3)
AAUAAA | 53.9 nM | 2490 nM | 80.7 nM
UAUUUAU | 574 nM | 93.1 nM | 600 nM
